The text below walks through data of patent US20100310640A1 (published 2010).

What is called IC50 is the point on the concentration scale where inhibition reaches its midpoint.

In assay [1] the target is HLA-DR DRB1*1501 (human). Kind of assay: radioligand inhibition, purified HLA-DR.
In assay [2] the target is HLA-DR DRB1*1501 (human). The experiment in a line: radiolabeled-peptide inhibition, purified HLA-DR.
For assay [3], the target named is HLA-DR DRB1*0701 (human). The experiment in a line: radioligand inhibition, purified HLA-DR.
Assay [4] deals with HLA-DR DRB1*0101 (human). Kind of assay: radioligand inhibition, purified HLA-DR.
Assay [5] concerns the target HLA-DR DRB1*1302 (human). The experiment in a line: radioligand inhibition, purified HLA-DR.
The target of assay [6] is HLA-DR DRB1*0401 (human). Kind of assay: radioligand inhibition, purified HLA-DR.
For assay [7], the target named is HLA-DR DRB1*1501 (human). Kind of assay: radioligand inhibition, purified HLA-DR. This is another data set of the same source.
In assay [8] the target is HLA-DR DRB1*0101 (human). Kind of assay: radiolabeled-peptide inhibition, purified HLA-DR.
Assay [9] has as its target HLA-DR DRB1*1501 (human). Kind of assay: radioligand inhibition, purified HLA-DR. The source holds these as a separate data set.
Assay [10] deals with HLA-DR DRB1*0301 (human). Kind of assay: radioligand inhibition, purified HLA-DR.
Assay [11] has as its target HLA-DR DRB3*0101 (human). Kind of assay: radioligand inhibition, purified HLA-DR.
Assay [12] concerns the target HLA-DR DRB1*0401 (human). Kind of assay: radiolabeled-peptide inhibition, purified HLA-DR.
The target of assay [13] is HLA-DR DRB1*0701 (human). Kind of assay: radiolabeled-peptide inhibition, purified HLA-DR.
Assay [14] concerns the target HLA-DR DRB1*0301 (human). The experiment in a line: radioligand inhibition, purified HLA-DR. The source holds these as a separate data set.
Assay [15] addresses HLA-DR DRB1*0101 (human). Kind of assay: radioligand inhibition, purified HLA-DR. The source holds these as a separate data set.
Assay [16] concerns the target HLA-DR DRB1*0701 (human). Kind of assay: radioligand inhibition, purified HLA-DR. This is another data set of the same source.
In assay [17] the target is HLA-DR DRB1*0401 (human). Kind of assay: radioligand inhibition, purified HLA-DR. This is another data set of the same source.
For assay [18], the target named is HLA-DR DRB1*1302 (human). The experiment in a line: radioligand inhibition, purified HLA-DR. The source holds these as a separate data set.

Regarding RWCIPWQRLLLTASL [CEA.10 peptide 9019.0104], the IC50 in [1] is 0.061 µM.
In assay [1], TVGIMIGVLVGVALI [CEA.688 peptide 9019.05] came in with an IC50 of 7.77 µM.
Turning to ITGYLYISAWPDSLP [9019.0050], the 50% inhibitory concentration (IC50) in assay [2] turned out to be 0.152 µM.
As for ELPLQALVMGEGTCE [Peptide 9019.0182], the IC50 in assay [3] is 15.6 µM; in assay [4] it was 1.5 µM; in assay [5] it was 9.17 µM; in [6], 6.78 µM.
In turn, QYSWRINGIPQQHTQ [CEA.624 peptide 9019.0138] came in with an IC50 in assay [1] of 2.07 µM.
The same measure, in the same setting: to SITVSASGTSPGLSA [CEA.671 peptide 9919.0143] belongs 3.11 µM.
In turn, ICTIDVYMIMVKCWM [Peptide 1622.04] displayed an IC50 in assay [7] of 2.65 µM.
For the molecule SSYLSGANLNLSCHS [CEA.603 peptide 9012.0137], the IC50 in [1] is 13 µM.
In assay [1], VCGIQNSVSANRSDP [CEA.570 peptide 9012.0135] yielded an IC50 of 8.98 µM.
On to GATLERPKTLSPGKN [Peptide 9019.0102], for which the IC50 in assay [4] stood at 1.81 µM; in [5], 5.33 µM; in assay [6], 2.79 µM.
In [2], ISAVVGILLVVVLGV [9019.0067] gave an IC50 of 6 µM.
With APTIRGDPECHLFYN [Peptide 9019.0022], the IC50 in assay [7] worked out at 3.67 µM.
For the molecule PSGVKPDLSYMPIWK [9019.0065], the half-inhibitory concentration (IC50) in assay [8] is 1.03 µM.
SDSVILNVLYGPDAP [CEA.123 peptide 9019.0119 (position 226)] registered an IC50 in assay [1] of 0.351 µM.
In the case of EALLESSLRQAQQNM [Cyclin D1.252], in [9], the IC50 is 8.18 µM.
In turn, INGIPQQHTQVLFIA [CEA.629 peptide 9019.0139] returned an IC50 in [1] of 8.29 µM.
For PERLAACGPPPVAPP [Peptide 9019.0179], the half-inhibitory concentration (IC50) in assay [7] came out at 4.05 µM.
In assay [1], SPGLSAGATVGIMIG [CEA.680 peptide 9019.0144] returned an IC50 of 3.93 µM.
For the molecule KIPVAIKVLRENTSP [1622.03], 0.611 µM corresponded to half-maximal inhibition in assay [2] (IC50).
On to CAELVREPGCGCCSV [Peptide 9019.0015], for which the 50% inhibitory concentration (IC50) in [10] was found to be 12.3 µM.
FRELVSEFSRMARDP [Peptide 9019.0096] showed an IC50 in [11] of 4.54 µM.
As to ICELHCPALVTYNTD [Her2/neu.263], the IC50 in assay [9] stood at 0.748 µM.
As to ILLVVVLGVVFGILI [9019.0068], the midpoint of inhibition in [2], the IC50, lay at 7.12 µM.
Molecule GMSYLEDVRLVHRDL [9019.0002] came in with an IC50 in assay [2] of 0.567 µM.
In assay [2], PESFDGDPASNTAPL [9019.0048] returned a 50% inhibitory concentration (IC50) of 0.805 µM.
For the molecule GHCWGPGPTQCVNCS [9019.0061], the IC50 in [12] worked out at 3.74 µM; in assay [8] it was 1.91 µM; in assay [13], 6.74 µM.
KLCIYTDNSIRPEEL [Cyclin D1.123] registered a half-maximal inhibitory concentration (IC50) in assay [9] of 0.025 µM.
Molecule MRKIVATWMLEVCEE [Cyclin D1.56] showed an IC50 in assay [9] of 0.087 µM.
In turn, LQRYSEDPTVPLPSE [Peptide 9019.0099] came in with a 50% inhibitory concentration (IC50) in assay [7] of 5.31 µM.
In assay [14], EELLQMELLLVNKLK [Cyclin D1.135] displayed a half-inhibitory concentration (IC50) of 3.39 µM.
As to CYGLGMEHLREVRAV [9019.0044], the IC50 in assay [2] came to 0.69 µM.
With SEGGLVENHVDSTMN [Peptide 9019.0183], the IC50 turned out to be 4.62 µM in assay [3] and 1.2 µM in assay [6].
As to RPRFRELVSEFSRMA [Peptide 9019.0095], in [7], the IC50 was determined as 0.348 µM.
In the case of GDPLNNTTPVTGASP [Her2/neu.120], the IC50 in assay [15] worked out at 6.36 µM; in [16], 13.2 µM; in assay [17] it was 7.46 µM; in [18], 1.03 µM.
In [2], SDVWSYGVTVWELMT [9019.0089] displayed a concentration for half-maximal inhibition (IC50) of 1.88 µM.
DNSIRPEELLQMELL [Cyclin D1.129] registered a half-inhibitory concentration (IC50) in assay [9] of 4.76 µM.
With TTPVTGASPGGLREL [Her2/neu.126], the IC50 in [9] worked out at 17.1 µM.
In assay [2], LQGLPREYVNARHCL [9019.0064] displayed an IC50 of 0.423 µM.
With LPRVGCPALPLPPPP [Peptide 9919.0173], the figures for the IC50 in assay [4], in assay [5] and in [6] were 1.91 µM, 8.94 µM and 6.54 µM, respectively.
WNLAAMTPHDFIEHF [Cyclin D1.150]: the IC50 in assay [15] stood at 6.42 µM.
